Data from patent US20100137420.

Tests used:
[1] = molecular target: cathepsin B (from THP-1 cell lysates) (UniProt P07858)
[2] = system: recombinant cystatin C
Sequence of recombinant cystatin C (chain, as listed by the source): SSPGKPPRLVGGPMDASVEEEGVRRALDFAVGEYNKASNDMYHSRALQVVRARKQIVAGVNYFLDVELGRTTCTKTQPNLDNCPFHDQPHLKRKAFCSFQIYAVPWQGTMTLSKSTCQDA

Sequence of cathepsin D (chain, as listed by the source): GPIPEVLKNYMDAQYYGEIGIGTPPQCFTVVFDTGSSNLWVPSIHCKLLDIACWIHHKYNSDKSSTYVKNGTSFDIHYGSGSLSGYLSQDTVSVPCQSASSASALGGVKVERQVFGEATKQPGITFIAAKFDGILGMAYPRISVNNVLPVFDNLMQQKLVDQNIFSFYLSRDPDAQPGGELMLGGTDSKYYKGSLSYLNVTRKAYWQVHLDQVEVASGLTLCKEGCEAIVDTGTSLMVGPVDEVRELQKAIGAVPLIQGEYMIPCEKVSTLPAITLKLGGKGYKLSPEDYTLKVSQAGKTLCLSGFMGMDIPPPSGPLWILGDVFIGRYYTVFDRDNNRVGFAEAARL

cathepsin D
cathepsin B activity (fluorogenic Ac-Arg-Arg-AFC assay) [1]: Cathepsin D and MMP-2 alone had no effect on cathepsin B activity | cleavage of recombinant cystatin C [2]: cathepsin D cleaved cystatin C at four different sites, and yielded a 12.5 kD fragment following cleavage from the C terminal region
